From publication PMC10602967, “Modulatory role of RNA helicases in MBNL-dependent alternative splicing regulation” come the findings set out here.

The target in data set [1] is T1, rDDX5 (UniProt P17844 1-614). Put plainly: EMSA; slightly lower preference than ss(UGCU)4; no defined complex band; Kd only in figure; EMSA: 15 nM RNA, 50 mM NaCl, 50 mM KCl, 50 mM Tris-HCl, 1 mM MgCl2 (pH not stated), 37 C 15 min, 10 ul, 6% native PA gel; Kd by one-site fit with Bmax = 100. As to conditions: protein: commercial; label: 5'-biotin; 3'-Cyanine 5; single-stranded.
T1 sequence (P17844 whole entry): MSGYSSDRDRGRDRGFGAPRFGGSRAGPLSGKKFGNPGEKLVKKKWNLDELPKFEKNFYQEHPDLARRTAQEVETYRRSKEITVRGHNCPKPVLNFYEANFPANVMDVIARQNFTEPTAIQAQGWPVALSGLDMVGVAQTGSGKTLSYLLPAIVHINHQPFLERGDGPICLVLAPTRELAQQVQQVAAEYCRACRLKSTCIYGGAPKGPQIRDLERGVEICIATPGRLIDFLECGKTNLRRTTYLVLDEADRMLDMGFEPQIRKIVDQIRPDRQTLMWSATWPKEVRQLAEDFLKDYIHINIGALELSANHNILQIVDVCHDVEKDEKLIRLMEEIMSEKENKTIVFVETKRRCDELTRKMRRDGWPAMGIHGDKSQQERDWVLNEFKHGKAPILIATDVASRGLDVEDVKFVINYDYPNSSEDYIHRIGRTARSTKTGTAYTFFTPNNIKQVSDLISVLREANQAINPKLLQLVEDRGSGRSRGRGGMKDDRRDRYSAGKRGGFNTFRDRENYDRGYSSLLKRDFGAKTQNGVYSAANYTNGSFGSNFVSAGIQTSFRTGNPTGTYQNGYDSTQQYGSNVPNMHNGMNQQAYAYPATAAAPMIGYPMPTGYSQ

Data set [2] concerns the target T1, rDDX5. In words: EMSA; slightly preferred over RNA-ctrl; no defined complex band; Kd only in figure; EMSA: 15 nM RNA, 50 mM NaCl, 50 mM KCl, 50 mM Tris-HCl, 1 mM MgCl2 (pH not stated), 37 C 15 min, 10 ul, 6% native PA gel; Kd by one-site fit with Bmax = 100. As to conditions: protein: commercial; label: 5'-biotin; 3'-Cyanine 5; single-stranded. Background: A gel shift assay detects complexes by their altered migration in electrophoresis.

In the case of UUUUUUUUGUCUGGUCCCUCGUUUUUUUU (ssRNA) [RNA-ctrl], the binding result with rDDX5 [1] is reported as “binds”.

As to UUUUUUUUGCUUGCUUGCUUGCUUUUUUUU (ssRNA) [RNA-ss(UGCU)4], the binding result with rDDX5 [2] is “binds”.
